# Laboratory results reported in patent US7514594B2, “Transgenic animal model of bone mass modulation” (Wyeth, priority 2003, dated 2009).
# B1: HBM ECD: extracellular domain (ECD) of HBM (protein, UniProt O75197 32-1384, looked up, variant G171V)
# extracellular domain: SPLLLFANRRDVRLVDAGGVKLESTIVVSGLEDAAAVDFQFSKGAVYWTDVSEEAIKQTYLNQTGAAVQNVVISGLVSPDGLACDWVGKKLYWTDSETNRIEVANLNGTSRKVLFWQDLDQPRAIALDPAHGYMYWTDWVETPRIERAGMDGSTRKIIVDSDIYWPNGLTIDLEEQKLYWADAKLSFIHRANLDGSFRQKVVEGSLTHPFALTLSGDTLYWTDWQTRSIHACNKRTGGKRKEILSALYSPMDIQVLSQERQPFFHTRCEEDNGGCSHLCLLSPSEPFYTCACPTGVQLQDNGRTCKAGAEEVLLLARRTDLRRISLDTPDFTDIVLQVDDIRHAIAIDYDPLEGYVYWTDDEVRAIRRAYLDGSGAQTLVNTEINDPDGIAVDWVARNLYWTDTGTDRIEVTRLNGTSRKILVSEDLDEPRAIALHPVMGLMYWTDWGENPKIECANLDGQERRVLVNASLGWPNGLALDLQEGKLYWGDAKTDKIEVINVDGTKRRTLLEDKLPHIFGFTLLGDFIYWTDWQRRSIERVHKVKASRDVIIDQLPDLMGLKAVNVAKVVGTNPCADRNGGCSHLCFFTPHATRCGCPIGLELLSDMKTCIVPEAFLVFTSRAAIHRISLETNNNDVAIPLTGVKEASALDFDVSNNHIYWTDVSLKTISRAFMNGSSVEHVVEFGLDYPEGMAVDWMGKNLYWADTGTNRIEVARLDGQFRQVLVWRDLDNPRSLALDPTKGYIYWTEWGGKPRIVRAFMDGTNCMTLVDKVGRANDLTIDYADQRLYWTDLDTNMIESSNMLGQERVVIADDLPHPFGLTQYSDYIYWTDWNLHSIERADKTSGRNRTLIQGHLDFVMDILVFHSSRQDGLNDCMHNNGQCGQLCLAIPGGHRCGCASHYTLDPSSRNCSPPTTFLLFSQKSAISRMIPDDQHSPDLILPLHGLRNVKAIDYDPLDKFIYWVDGRQNIKRAKDDGTQPFVLTSLSQGQNPDRQPHDLSIDIYSRTLFWTCEATNTINVHRLSGEAMGVVLRGDRDKPRAIVVNAERGYLYFTNMQDRAAKIERAALDGTEREVLFTTGLIRPVALVVDNTLGKLFWVDADLKRIESCDLSGANRLTLEDANIVQPLGLTILGKHLYWIDRQQQMIERVEKTTGDKRTRIQGRVAHLTGIHAVEEVSLEEFSAHPCARDNGGCSHICIAKGDGTPRCSCPVHLVLLQNLLTCGEPPTCSPDQFACATGEIDCIPGAWRCDGFPECDDQSDEEGCPVCSAAQFPCARGQCVDLRLRCDGEADCQDRSDEADCDAICLPNQFRCASGQCVLIKQQCDSFPDCIDGSDELMCEITKPPSDDSPAHS
# modifications: extracellular domain
# B2: Dkk-1 mutant having cysteine 220 changed to alanine: Dkk-1 mutant having cysteine 220 changed to alanine (protein, UniProt O94907 32-266, looked up, variant C220A)
# Dickkopf-related protein 1: TLNSVLNSNAIKNLPPPLGGAAGHPGSAVSAAPGILYPGGNKYQTIDNYQPYPCAEDEECGTDEYCASPTRGGDAGVQICLACRKRRKRCMRHAMCCPGNYCKNGICVSSDQNHFRGEIEETITESFGNDHSTLDGYSRRTTLSSKMYHTKGQEGSVCLRSSDCASGLCCARHFWSKICKPVLKEGQVATKHRRKGSHGLEIFQRCYCGEGLSCRIQKDHHQASNSSRLHTCQRH
# B3: human parathyroid hormone (peptide, UniProt P01270 32-115, looked up)
# Parathyroid hormone: SVSEIQLMHNLGKHLNSMERVEWLRKKLQDVHNFVALGAPLAPRDAGSQRPRKKEDNVLVESHEKSLGEADKADVNVLTKAKSQ
# modifications: Parathyroid hormone
# notes: human parathyroid hormone (hPTH), anabolic agent
# B4: Dkk-2: Dkk family protein found to directly bind LRP6 (protein, UniProt Q9UBU2 34-259, looked up)
# Dickkopf-related protein 2: KLNSIKSSLGGETPGQAANRSAGMYQGLAFGGSKKGKNLGQAYPCSSDKECEVGRYCHSPHQGSSACMVCRRKKKRCHRDGMCCPSTRCNNGICIPVTESILTPHIPALDGTRHRDRNHGHYSNHDLGWQNLGRPHTKMSHIKGHEGDPCLRSSDCIEGFCCARHFWTKICKPVLHQGEVCTKQRKKGSHGLEIFQRCDCAKGLSCKVWKDATYSSKARLHVCQKI
# Key:
# [1] = system: ovariectomized het and ntg mice; assay: ovx-induced osteopenia in het and ntg mice treated with 17β-estradiol; format: in vivo, mouse; conditions: both het and ntg; ovariectomized at 9 weeks; 10 μg/kg/day 17β-estradiol for 35 days
# Experimental: To determine whether the mutation had any effect on ovx-induced osteopenia, het and ntg mice were ovariectomized at 9 weeks of age and treated for 35 days with vehicle or 10 μg/kg/day 17β-estradiol (E2). The percent change in total, trabecular and cortical density in het and ntg ovx mice from those values in their respective sham operated controls were determined. […] Ovariectomy induced a 14.3% decrease in total BMD (696±6 to 597±7 mg/cm^3) and a 26.3% decrease in trabecular BMD (445±9 to 328±7 mg/cm^3) in the het group and a 14.9% decrease in total BMD (470±10 to 400±7 mg/cm^3) and 37.6% decrease in trabecular BMD (132±4 to 82±2 mg/cm^3) in the ntg group.
# [2] = system: canonical Wnt signaling; conditions: cited from earlier work
# [3] = molecular target: HBM (Homo sapiens, UniProt O75197, G171V); assay: Dkk-1 binding to HBM; conditions: observed by the inventors
# Chain of HBM (O75197 32-1615 G171V): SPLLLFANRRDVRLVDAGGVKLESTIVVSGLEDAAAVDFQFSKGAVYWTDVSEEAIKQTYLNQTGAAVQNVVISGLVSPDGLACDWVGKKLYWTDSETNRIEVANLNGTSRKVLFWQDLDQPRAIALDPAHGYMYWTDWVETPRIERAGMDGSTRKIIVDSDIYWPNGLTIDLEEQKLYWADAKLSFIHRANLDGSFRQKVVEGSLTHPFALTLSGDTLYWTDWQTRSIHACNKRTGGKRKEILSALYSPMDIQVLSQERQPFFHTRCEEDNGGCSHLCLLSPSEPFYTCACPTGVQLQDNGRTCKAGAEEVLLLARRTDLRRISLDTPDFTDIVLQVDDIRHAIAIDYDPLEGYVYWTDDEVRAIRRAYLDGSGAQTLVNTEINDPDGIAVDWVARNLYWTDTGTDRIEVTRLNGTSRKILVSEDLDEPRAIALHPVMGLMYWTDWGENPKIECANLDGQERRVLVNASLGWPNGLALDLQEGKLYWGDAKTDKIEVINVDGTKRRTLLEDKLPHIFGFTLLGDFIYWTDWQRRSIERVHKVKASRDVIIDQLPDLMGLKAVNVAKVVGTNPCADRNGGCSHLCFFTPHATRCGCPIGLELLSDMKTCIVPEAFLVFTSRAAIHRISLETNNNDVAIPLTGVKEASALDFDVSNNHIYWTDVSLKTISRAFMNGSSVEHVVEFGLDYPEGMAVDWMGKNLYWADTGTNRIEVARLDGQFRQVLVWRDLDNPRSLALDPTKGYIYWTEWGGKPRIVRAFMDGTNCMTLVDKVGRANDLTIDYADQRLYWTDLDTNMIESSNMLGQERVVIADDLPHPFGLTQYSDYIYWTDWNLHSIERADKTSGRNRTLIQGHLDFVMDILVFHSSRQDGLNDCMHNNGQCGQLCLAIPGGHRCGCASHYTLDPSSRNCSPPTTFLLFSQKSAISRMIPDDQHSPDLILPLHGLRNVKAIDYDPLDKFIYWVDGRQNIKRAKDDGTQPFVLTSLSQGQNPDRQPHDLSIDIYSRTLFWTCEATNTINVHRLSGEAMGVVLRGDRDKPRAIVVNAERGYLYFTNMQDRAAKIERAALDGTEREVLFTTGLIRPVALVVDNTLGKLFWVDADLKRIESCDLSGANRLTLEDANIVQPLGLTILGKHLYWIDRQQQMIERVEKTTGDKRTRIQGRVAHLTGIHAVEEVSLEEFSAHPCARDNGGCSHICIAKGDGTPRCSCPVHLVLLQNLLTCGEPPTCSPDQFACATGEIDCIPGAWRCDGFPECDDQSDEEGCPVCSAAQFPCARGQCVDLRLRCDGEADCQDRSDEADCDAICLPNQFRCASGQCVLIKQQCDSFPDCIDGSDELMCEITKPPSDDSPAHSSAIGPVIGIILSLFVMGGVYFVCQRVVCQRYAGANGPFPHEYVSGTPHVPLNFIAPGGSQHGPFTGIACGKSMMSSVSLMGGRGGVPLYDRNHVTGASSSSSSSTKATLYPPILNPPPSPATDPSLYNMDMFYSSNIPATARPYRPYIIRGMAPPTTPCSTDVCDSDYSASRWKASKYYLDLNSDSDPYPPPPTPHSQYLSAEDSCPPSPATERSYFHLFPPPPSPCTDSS
# Source text: (§1) It may be that the reduced effectiveness of Dkk inhibition of LRP5 which is observed for HBM is not necessarily mediated by enhancing or preventing the binding of Dkk to LRP5/LRP6/HBM. More than one mechanism may be involved. […] Further, it has been observed that different members of the Dkk family differentially affect LRP5/LRP6/HBM activity. Rather, the more preferred approach is to develop a drug or therapy which results in the desired protective benefits by reproducing as nearly as possible the subtle effect of HBM. The ability to refine and test potential drugs and therapies by comparing their effects to an animal model of HBM is among the major features of the present invention.
# [4] = molecular target: LRP5 (Homo sapiens, UniProt O75197); assay: Dkk-1 binding to LRP5; conditions: observed by the inventors
# Chain of LRP5 (O75197 32-1615): as the sequence (O75197 32-1615 G171V) above, with V140G counted along it
# Source text: 1, 2002, and 60/361,293 filed Mar. 4, 2002. The two-hybrid screen is a common procedure in the art, which is described, for example, by Gietz et al., Mol. Cell. Biochem. 172:67-79 (1997); Young, Biol. Reprod. 58:302-11 (1998); Brent and Finley, Ann. Rev. Genet. 31:663-704 (1997); and Lu and Hannon, eds., Yeast Hybrid Technologies, Eaton Publishing, Natick Mass., (2000).
# as §1
# [5] = molecular target: T1, LRP6 (Homo sapiens, UniProt O75581); assay: Dkk-1 binding to LRP6; conditions: observed by the inventors
# T1 sequence (O75581 20-1613, species assumed): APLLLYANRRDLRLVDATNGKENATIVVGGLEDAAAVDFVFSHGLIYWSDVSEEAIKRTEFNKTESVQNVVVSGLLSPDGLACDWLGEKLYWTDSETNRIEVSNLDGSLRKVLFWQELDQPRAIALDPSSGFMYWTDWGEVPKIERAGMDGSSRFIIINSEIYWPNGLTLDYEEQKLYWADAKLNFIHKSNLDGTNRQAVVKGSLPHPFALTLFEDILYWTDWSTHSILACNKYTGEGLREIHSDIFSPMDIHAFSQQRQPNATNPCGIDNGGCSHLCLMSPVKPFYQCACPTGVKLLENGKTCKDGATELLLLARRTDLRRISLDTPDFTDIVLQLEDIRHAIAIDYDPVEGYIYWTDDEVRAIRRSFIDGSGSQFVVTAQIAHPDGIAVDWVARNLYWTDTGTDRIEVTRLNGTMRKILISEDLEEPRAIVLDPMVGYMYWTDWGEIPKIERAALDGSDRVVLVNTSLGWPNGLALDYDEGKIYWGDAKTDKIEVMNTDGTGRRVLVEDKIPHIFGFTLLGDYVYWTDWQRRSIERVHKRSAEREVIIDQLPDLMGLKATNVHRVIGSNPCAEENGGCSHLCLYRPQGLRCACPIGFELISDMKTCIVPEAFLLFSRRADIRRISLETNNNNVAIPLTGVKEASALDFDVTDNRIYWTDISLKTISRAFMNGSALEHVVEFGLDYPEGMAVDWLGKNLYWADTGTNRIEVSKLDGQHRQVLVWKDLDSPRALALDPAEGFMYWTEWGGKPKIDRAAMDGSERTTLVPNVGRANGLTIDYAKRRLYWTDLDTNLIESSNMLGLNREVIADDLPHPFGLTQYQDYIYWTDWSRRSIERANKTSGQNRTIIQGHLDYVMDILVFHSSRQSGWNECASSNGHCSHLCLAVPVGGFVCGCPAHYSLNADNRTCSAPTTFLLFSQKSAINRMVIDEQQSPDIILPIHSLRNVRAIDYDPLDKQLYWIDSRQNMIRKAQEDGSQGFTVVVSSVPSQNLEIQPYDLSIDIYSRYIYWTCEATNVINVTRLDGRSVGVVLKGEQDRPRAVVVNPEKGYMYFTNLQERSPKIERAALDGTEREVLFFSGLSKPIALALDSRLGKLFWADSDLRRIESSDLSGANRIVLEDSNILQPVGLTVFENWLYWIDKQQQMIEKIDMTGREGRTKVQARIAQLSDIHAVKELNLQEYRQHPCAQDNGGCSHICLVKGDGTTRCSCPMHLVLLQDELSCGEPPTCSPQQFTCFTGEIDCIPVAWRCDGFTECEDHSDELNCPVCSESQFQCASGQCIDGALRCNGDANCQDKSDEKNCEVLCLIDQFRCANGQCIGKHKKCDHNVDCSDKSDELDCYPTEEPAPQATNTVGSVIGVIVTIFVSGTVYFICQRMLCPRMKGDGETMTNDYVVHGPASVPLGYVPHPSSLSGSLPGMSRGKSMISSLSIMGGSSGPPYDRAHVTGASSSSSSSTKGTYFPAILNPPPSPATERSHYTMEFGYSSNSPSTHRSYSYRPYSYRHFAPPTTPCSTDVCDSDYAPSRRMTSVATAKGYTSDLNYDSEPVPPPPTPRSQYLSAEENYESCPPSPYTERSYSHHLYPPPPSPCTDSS
# Source text: as §1
# [6] = system: LRP5-mediated Wnt signaling; assay: Dkk-1 repression of LRP5-mediated Wnt signaling; format: cell-based
# Source text: (§2) 1, 2002, and 60/361,293 filed Mar. 4, 2002. This observation is of particular interest because the HBM mutation in LRP5 is a gain of function or activation mutation. That is, Wnt signaling, via the canonical pathway, is enhanced with HBM versus LRP5. Not wishing to be bound by theory, it is believed that this interaction provides an explanation of the developmental signaling differences between HBM and the more common LRP5/LRP6.
# [7] = system: HBM-mediated Wnt signaling; assay: Dkk-1 repression of HBM-mediated Wnt signaling; format: cell-based; conditions: compared with LRP5-mediated signaling
# Source text: as §2
# [8] = system: Wnt pathway; assay: Xenopus embryo assay of Wnt pathway stimulation; format: in vivo; conditions: for stimulation of the Wnt pathway: in combination with Wnt5a
# Source text: Axin was also identified from the two hybrid experiments. This protein is involved in inhibition of the Wnt signaling pathway and interacts with the tumor suppressor APC. There is a link here with the focal adhesion signaling described above: one common step in the two pathways involves inhibition of glycogen synthase kinase 3, which in turn results in the activation of β-catenin/Lef-1 and AP-1 transcription factors. Axin/APC are involved in this as well as integrin linked kinase. The Wnt pathway has a role in determining cell fates during embryogenesis. If inappropriately activated, the Wnt pathway may also lead to cancer. The Wnt pathway also seems to have a role in cytoskeletal rearrangements. […] A model depicting LRP5 involvement in focal adhesion signaling is depicted in FIG. 15.
# [9] = molecular target: T1, LRP6; conditions: Semenov et al.; cited from earlier work
# [10] = system: LRP5 G171V transgenic (het) and non-transgenic littermate (ntg) mice; assay: hPTH treatment of LRP5 G171V transgenic and non-transgenic mice, femoral density by pQCT; format: in vivo, mouse; conditions: for Percent Change in Bone Mass Density After 30 Days of hPTH Treatment, cortical, ntg / Percent Change in Bone Mass Density After 30 Days of hPTH Treatment, cortical, transgenic / Percent Change in Bone Mass Density After 30 Days of hPTH Treatment, total, ntg / Percent Change in Bone Mass Density After 30 Days of hPTH Treatment, total, transgenic / Percent Change in Bone Mass Density After 30 Days of hPTH Treatment, trabecular, ntg / Percent Change in Bone Mass Density After 30 Days of hPTH Treatment, trabecular, transgenic: left femur pQCT, vs vehicle controls
# Experimental: In order to further examine increases in bone density that were detected in select transgenic lines through monitoring of the animals by non-invasive bone imaging, necropsies were performed on animals of these lines at 5 and 9 weeks of age for direct bone densitometric and histologic analysis. The left femur was isolated, cleaned and positioned in an XCT Research peripheral Quantitative Computed Tomograph (pQCT; Stradtec Medizintechnik, Pforzheim, Germany). The distal end of the femur was located and pQCT scanning was initiated 2.5 mm proximal from this point for total and trabecular measurements. The pQCT scan for cortical measurements was initiated 3.5 mm proximal from the first scan (i.e., 6 mm proximal from the distal end). […] The soft tissue was automatically removed using an iterative algorithm, and the density of the remaining bone (total density) in the first slice was determined. The outer 55% of the bone was then peeled away in a concentric spiral and the density of the remaining bone (trabecular density) of the first slice was reported in mg/cm^3. In the second slice, the boundary between cortical and trabecular bone was determined using an iterative algorithm, and the density of the cortical bone was determined.
# […] Total, trabecular and cortical densities were measured in excised left femur by pQCT. PTH response was normalized to the bone densities of the vehicle group and expressed as percent change from their respective vehicle controls.
# [11] = molecular target: T1, LRP6; conditions: Mao et al.; cited from earlier work
# [12] = extracellular domains, absence of Wnt5a
# [13] = ntg animals, treatment with PTH
molecule,measurement,setting,value
"C[C@]12CC[C@@H]3c4ccc(O)cc4CC[C@H]3[C@@H]1CC[C@@H]2O [E2, 17β-estradiol]",ovx-induced bone loss,[1],completely prevented
"Dkk-1: protein dickkopf-1, an antagonist of the Wnt pathway",canonical Wnt signaling,"[2]; Bafico et al., Dkk-1 added at extremely low concentrations (30 pM)",repression
same,binding to HBM,[3],binds
same,binding to LRP5,[4],binds
same,binding to LRP6,[5],binds
same,repression of LRP5-mediated Wnt signaling,[6],able to repress
same,repression of HBM-mediated Wnt signaling,[7],less effective
HBM: protein identical to LRP5 except for an alteration of glycine 171 to valine,stimulation of the Wnt pathway,[8],much greater extent
LRP5 ECD: extracellular domain (ECD) of LRP5,stimulation of Wnt signaling,[8]; [12],modest stimulation
LRP5: wild-type LRP5 protein (SEQ ID NO: 3),stimulation of the Wnt pathway,[8],modestly above the control
B1,stimulation of Wnt signaling,"[8]; extracellular domain, presence of Wnt5a",slightly increased
same,stimulation of Wnt signaling,[8]; [12],modest stimulation
B2,repression of Wnt signaling,[2]; Semenov et al.,unable to repress
same,LRP6 binding,[9],abolished
B3,"Percent Change in Bone Mass Density After 30 Days of hPTH Treatment, cortical, ntg",[10]; Female,4%
same,"Percent Change in Bone Mass Density After 30 Days of hPTH Treatment, cortical, transgenic",[10]; Female,−1%
same,"Percent Change in Bone Mass Density After 30 Days of hPTH Treatment, total, ntg",[10]; Female,18%
same,"Percent Change in Bone Mass Density After 30 Days of hPTH Treatment, total, transgenic",[10]; Female,30%
same,"Percent Change in Bone Mass Density After 30 Days of hPTH Treatment, trabecular, ntg",[10]; Female,−3%
same,"Percent Change in Bone Mass Density After 30 Days of hPTH Treatment, trabecular, transgenic",[10]; Female,59%
same,"Percent Change in Bone Mass Density After 30 Days of hPTH Treatment, cortical, ntg","[10]; Male, hPTH 100 mg/kg/day sc",3%
same,"Percent Change in Bone Mass Density After 30 Days of hPTH Treatment, cortical, transgenic","[10]; Male, hPTH 100 mg/kg/day sc",2%
same,"Percent Change in Bone Mass Density After 30 Days of hPTH Treatment, total, ntg","[10]; Male, hPTH 100 mg/kg/day sc",23%
same,"Percent Change in Bone Mass Density After 30 Days of hPTH Treatment, total, transgenic","[10]; Male, hPTH 100 mg/kg/day sc",37%
same,"Percent Change in Bone Mass Density After 30 Days of hPTH Treatment, trabecular, ntg","[10]; Male, hPTH 100 mg/kg/day sc",5%
same,"Percent Change in Bone Mass Density After 30 Days of hPTH Treatment, trabecular, transgenic","[10]; Male, hPTH 100 mg/kg/day sc",80%
same,total femoral BMD,"[10]; both het and ntg, treatment with PTH",significant increase
same,trabecular bone compartment,"[10]; het animals, treatment with PTH",increase
same,cortical bone,[10]; [13],significant increase
same,trabecular BMD,[10]; [13],no changes
B4,Kd,[11],0.73 nM
